Assay: soluble on expression in E. coli; label from the status in PepcDB or PDB records

Sequence | soluble on expression in E. coli
MFGIFDKGQKIKGTVVLMPKNVLDFNAITSIGKGGVIDTATGILGQGVSLVGGVIDTATSFLGRNISMQLISATQTDGSGNGKVGKEVYLEKHLPTLPTLGARQDAFSIFFEWDASFGIPGAFYIKNFMTDEFFLVSVKLEDIPNHGTIEFVCNSWVYNFRSYKKNRIFFVNDTYLPSATPAPLLKYRKEEFEVLRGDGTGKRKDFDRIYDYDVYNDLGNPDGGDPRPILGGCSIYPYPLRVRTGRERTRTDPNSEKPGEVYVPRDENFGHLKSSDFLTYGIKSLSHDVIPLFKSAIFQLRVTSSEFESFEDVRSLYEGGIKLPTDILSQISPLPALKEIFRTDGENVLQFPPPHVAKVSKSGVMTDEEFAREVIAGVNPNVIRRLQEFPPKSTLDPTLYGDQTSTITKEQLEINMGGVTVEEALSTQRLFILDYQDAFIPYLTRINSLPTAKAYATRTILFLKDDGTLKPLAIELSKPHPDGDNLGPESIVVLPATEGVDSTIWLLAKAHVIVNDSGYHQLVSHWLNTHAVMEPFAIATNRHLSVLHPIYKLLYPHYRDTININGLARQSLINADGIIEKSFLPGKYSIEMSSSVYKNWVFTHQALPADLVKRGLAIEDPSAPHGLRLVIEDYPYAVDGLEIWDAIKTWVHEYVSLYYPTDAAVQQDTELQAWWKEAVEKGHGDLKEKPWWPKKQTTEDLIQSCSIIVWTASALHAAVNFGQYPYGGLILNRPTLARRFIPAEGTPEYDEMVKNPQKAYLRTITPKFETLIDLSVIEILSRHASDEIYLGERETPNWTTDKKALEAFKRFGSKLTGIEGKINARNSDPSLRNRTGPVQLPYTLLHRSSEEGLTFKGIPNSISI | soluble
MSDRQAALDMALKQIEKQFGKGSIMKLGEQAERKVSTVSSGSLALDVALGVGGYPRGRIIEIYGPESSGKTTVSLHAIAEVQRQGGQAAFIDAEHAMDPVYAQKLGVNIDELLLSQPDTGEQGLEIAEALVRSGAVDIIVIDSVAALVPKAEIEGDMGDSHVGLQARLMSQALRKLSGAINKSKTIAIFINQIREKVGVMFGNPETTPGGRALKFYSTVRLEVRRAEQLKQGNDIVGNKTKVKVVKNKVAPPFRVAEVDIMYGEGISREGEILDMASELDIVQKSGAWYSYNEERLGQGRENSKQFLKENTDLREEIAFFIREHHGISEDSGAEGMEDPNLLD | not soluble
MASKYAVKLKTDFDNPRWIKRHKHMFDFLDINGNGKITLDEIVSKASDDICAKLEATPEQTKRHQVCVEAFFRGCGMEYGKEIAFPQFLDGWKQLATSELKKWARNEPTLIREWGDAVFDIFDKDGSGTITLDEWKAYGKISGISPSQEDCESTFRHCDLDNAGDLDVDEMTRQHLGFWYTLDPEADGLYGNGVP | soluble
MEKLTIQEEEVMLHIWSMGECFVKDIVAKFPEPKPPYTTVASIVNNLKRKGYVTAKRFGNTYQYTPVVKQSEYKRTFVSGVVRNYFADSYKEMVSFFAKEQKISAADLKDIINLIEKEEDK | not soluble
MSTSKRPYKILLRKVESKEENKKDTNETKKKEEESKHYEDRHYRKNDIKHYEENEKTIKSKMHYNSRNRYYDKYSMSYSRYDEKLNKQHSSEKKKDVLVPLLEQASINIKKKKIIIRKLPPTLTEENFFDSFSNNIKDELDYYYFVNGSASKDSSNDIIYSRMYLSFKDDMKTDEFIRTQNGKFFYDLNGVKYKALVSYAPNQTLIKKNKPDSRNNTLESDEYFLKCCEEMNNPVQRVKKDIDYSELINVQTENGAILSPIVIELRSKKKK | not soluble
MNLSFKINSMYICVHNMDRAINFYENLFNCKVTGKDEIYSVFDINGFRYGLFANKKTGEKKIWGNNCLPSFQVNDIDLILEKLKELNCPIVFPLTNIGKNKVLEFTDCEGNAIEITSPIKLEHHHHHH | not soluble
GSEKRQHSSQDVHVVLKLWKSGFSLDNGELRSYQDPSNAQFLESIRRGEVPAELRRLAHGGQVNLDMEDHRDEDFVKPKGAFKAFTGEGQKLGSTAPQVLST | soluble
GPGSMTSKKAAKEKDEYTPQERLTAAALEYKKLEGHNQSSIERMYGALSSPFRVSNKPCEVPRAAVLRCFEEILGKTNNGENGSTDNLAETTVVGRSISGGNNADGRVLLSSDSRFPSVHRCYDAVLQYESCVVEKTLAQHHSLLAGFEARQLQEAESANEVPKAVASGA | not soluble
MNLIPQDVLKKYLLPIRDLATSTFVFKKKYTRECQRSTPRNFINQFLLLFLKVPFSLLQELKLSKMLEIDKDKKVLIGCLAGSFLFYHTARQIYSYMSVKPREWVPVGVVKSLHIFPIKSCKSVDVFAFKCTKLGPVMGDLEDRAFMLVEESTGKFITARQKPKLVHVENYMTDGMLEVTVPGQPKLSVDLRKVLQNKRTIRATLFKNLKQDGYDCGDEVAKLLSDYIEEPNYRLIFYKEGLYTERTVIPDDQWWNNPVPKRNDDSGFTDLAPFHIATDASLKVLNEKLDNKITMRYFRPSIYIEGCAAWDEDKWAEIRIGDAHLECFAPCTRCVLTTVDPVKGEMSKEMQPLKKLREFRLVPDGKMRKVHMESPVFGVYAGLVNEGYIHTGQTVYVRYKPTAF | not soluble
MGSDKIHHHHHHMTFIDSPLSQTIALAGGDLHVAVARSDLPLGALCGFASRRNPKRPFLFVSKVLGRHLPVRPQVMRMVHRRLAAKLPANLPGPVVAIGMAETAICLGQGVFEAWRGGSGREDGLFIHSTRYRLRQGLLSTFEESHSHATSHLIHQPAAALDRALCAACRTLVLVDDEASTGATFVALVEANRAAMPNLARIVCVTITDWMGAAKRAEITAAMPVPTTFVSLLEGGYTFEARTVTPPAMPNVTGDGAFKDDLIPVNWGRLGLRRPRPLPAAALAIRAKAGERVLVLGTGEFVFPPFQLARRLSAMGADVRVQATTRSPILEGGDIDGVIDFADAYGDGIPNFLYSTRPGDYDRVLVCYETPPSTAQTALIAALGAEPVFFNAIGGPRT | not soluble
MICCLGPRGSYSEKAAVTFSKAINDSEIQFEDSIYNVFKAVETNPEFFGVVPSENSIGGSVSITQDLLLEFPVKILGEVDISINHCLLGYDIKKVTEVLAHPQALAQCGHYITKNNWNITPVDSNAKAAKIVSEEKDEKLAAICGVENAEIYGLNVLDEYIQDFKNNTTRFFLICNKNK | not soluble
MSEVKVITGTSAAAEAAKLADVDVIAAYPITPQTTCVEKLADFVANGELNAEYIKVESEHSAMSASIAASATGARTFTATSSQGLALMHEVLFAAAGMRVPVVMMNANRALSAPINIWNDQQDSLSQRDTGWIQLYAEDNQEVLDLVIQAFKIAEDEKVLLPVMVNLDGFILTHTVEPVTLPKQESVLDFIGSYEPKHAYLDPKKPMTQGSLGDPNYYMETRYAIETAMRNAEKVIADVHDAFAEKFNRAYGNGLIESYNLEKAENVIVAMGSICGTIKDMIDLKKKEGVEIGLLKIRCYRPLPVEMIKDALKNAKNVAILDKSISLGMNKGAIYADVASFLKDKKTVNYIVGLGGRDITPEDILGIYVDVETSEDGKTNWVGLKEE | not soluble
MGSDKIHHHHHHMYNVMNCIIVDDEPLAREAMKLLIEEAECLQLVGSFNSAATASDFMEQHVVDLVFLDIQMPGITGIEFARTISKRTLVIFTTAYTEYALDSYEVDAIDYLIKPVEAERFQKAVEKAQSYHSLLLQEEKEAIETIVAAEYFFVKAERRYFKVNFSDILFVEGLKDYVILQLGEQRIITRMSLKAVFDLLPKDSFLRVNKSYIVNTAHIDSFDNNDIFIKSYEIAIGNSYRDDFFEGFVMKQQRW | not soluble
MKVVQRKIKKSGKDRKRIGRGGSAYILDKRRITAVQNMKREAEKEKLRERFAAAANMPKDVVLGASVVTVIGNGEISIENYRGILEYTGELIRVQTKKGQIQVHGKGLQIEYYLNDEMKITGKIHTLEYEMLEHHHHHH | soluble
MARINRISITLCALLFTTLPLTPMAHASKQARESSATTHITKKADKKKSTATTKKTQKTAKKAASKSTTKSKTASSVKKSSITASKNAKTRSKHTVNKTASASLTEKCTKRKGYKSHCVKVKNAASGTLADAHKAKVQKATKVAMNKLMQQIGKPYRWGGSSPRTGFDCSGLVYYAYKDLVKIRIPRTANEMYHLRDAAPIERSELKNGDLVFFRTQGRGTADHVGVYVGNGKFIQSPRTGQEIQITSLSEDYWQRHYVGARRVMTPKTLR | soluble

— the DeepSol protein solubility set
